# Target: the molecule itself
# Test: cryo-EM structure; purified virions in EM buffer (10 mM HEPES pH 7.6, 200 mM NaCl, 5 mM MgCl2, 1 mM KCl, 1 mM CaCl2), icosahedral reconstruction and focussed classification of P domain dimers
protein,measurement,value
"murine norovirus (MNV-1 strain CW1P3) major structural protein VP1, wild type (natural protein, major capsid protein VP1 (ORF2) of murine norovirus MNV-1 strain CW1P3, as it stands in infectious virions; N-terminal region, S domain, P domain (P1, P2); modelled from D20 (A-type), S17 (B-type), V30 (C-type); Capsid: 90 dimers (AB and CC) in T = 3 symmetry; also called wtMNV VP1; MNV VP1; copies: 180) MRMSDGAAPKANGSEASGQDLVPAAVEQAVPIQPVAGAALAAPAAGQINQIDPWIFQNFVQCPLGEFSISPRNTPGEILFDLALGPGLNPYLAHLSAMYTGWVGNMEVQLVLAGNAFTAGKVVVALVPPYFPKGSLTTAQITCFPHVMCDVRTLEPIQLPLLDVRRVLWHATQDQEESMRLVCMLYTPLRTNSPGDESFVVSGRLLSKPAADFNFVYLTPPIERTIYRMVDLPVIQPRLCTHARWPAPVYGLLVDPSLPSNPQWQNGRVHVDGTLLGTTPISGSWVSCFAAEAAYKFQSGTGEVATFTLIEQDGSAYVPGDRAAPLGYPDFSGQLEIEVQTETTKTGDKLKVTTFEMILGPTTNADQAPYQGRVFASVTAAASLDLVDGRVRAVPRSIYGFQDTIPEYNDGLLVPLAPPIGPFLPGEVLLRFRTYMRQIDTADAAAEAIDCALPQEFVSWFASNAFTVQSEALLLRYRNTLTGQLLFECKLYNEGYIALSYSGSGPLTFPTDGIFEVVSWVPRLYQLASVGSLATGRMLKQ",stoichiometry N,180 VP1 chains in the capsid
